From article PMC3287177

What was measured:
Test in all cases: EMSA
[1] = biological target: T1, Lin28 119-180 (NCp7-like domain) (Mus musculus, UniProt Q8K3Y3 119-180)
T1 sequence: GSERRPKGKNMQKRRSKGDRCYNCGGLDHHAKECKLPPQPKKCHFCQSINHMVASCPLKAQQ

[2] = biological target: T2, Lin28 39-112 (CSD) (Mus musculus, UniProt Q8K3Y3 39-112)
T2 sequence: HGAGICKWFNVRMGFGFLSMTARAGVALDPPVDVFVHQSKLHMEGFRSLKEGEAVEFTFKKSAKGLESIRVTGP

[3] = biological target: T3, Lin28 1-209 (Mus musculus, UniProt Q8K3Y3 1-209)
T3 sequence: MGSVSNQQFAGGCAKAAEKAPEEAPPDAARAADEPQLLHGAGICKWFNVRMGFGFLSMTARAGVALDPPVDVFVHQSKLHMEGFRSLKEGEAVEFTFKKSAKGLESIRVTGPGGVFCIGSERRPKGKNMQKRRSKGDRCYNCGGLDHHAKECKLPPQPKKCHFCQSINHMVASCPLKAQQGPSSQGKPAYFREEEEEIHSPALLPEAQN

B1: pre-let-7g (structured_RNA)
RNA: UGAGGUAGUAGUUUGUACAGUUUGAGGGUCUAUGAUACCACCCGGUACAGGAGAUAACUGUACAGGCCACUGCCUUGCC
[1]
  Kd: 600 ± 100 pM
[2]
  Kd: 41000 ± 10000 pM
[3]
  Kd: 150 ± 40 pM
